Here are results for two molecules from paper doi:10.1101/2025.05.02.651988 (bioRxiv, 2025).

Holding throughout (assay): cryo-EM structure
The target of data set [1] is E. coli RNA polymerase σ70 subunit (E. coli, UniProt P00579 1-613).
Data set [2] concerns the molecule itself.
Data set [3] deals with the molecule itself. The source holds these as a separate data set.

Like-named read-outs stand apart in the source and are kept apart here.

Chain of E. coli RNA polymerase σ70 subunit (P00579 whole entry): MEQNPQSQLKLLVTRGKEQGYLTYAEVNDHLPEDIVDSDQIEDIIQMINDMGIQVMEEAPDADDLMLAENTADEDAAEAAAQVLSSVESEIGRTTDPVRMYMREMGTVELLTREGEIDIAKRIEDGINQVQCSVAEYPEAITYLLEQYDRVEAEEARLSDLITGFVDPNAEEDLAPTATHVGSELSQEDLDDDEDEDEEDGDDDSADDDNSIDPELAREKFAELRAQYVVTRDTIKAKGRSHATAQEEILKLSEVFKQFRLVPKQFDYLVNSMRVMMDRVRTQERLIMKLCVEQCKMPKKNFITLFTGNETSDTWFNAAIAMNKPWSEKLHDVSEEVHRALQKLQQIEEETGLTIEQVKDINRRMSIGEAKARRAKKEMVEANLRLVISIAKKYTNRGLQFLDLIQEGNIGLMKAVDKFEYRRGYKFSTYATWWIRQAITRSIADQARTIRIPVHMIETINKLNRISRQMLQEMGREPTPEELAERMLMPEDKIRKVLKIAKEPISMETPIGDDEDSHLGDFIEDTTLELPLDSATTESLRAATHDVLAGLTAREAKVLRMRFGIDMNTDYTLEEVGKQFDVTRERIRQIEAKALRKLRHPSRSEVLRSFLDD

B1: phage Mu middle operon regulator Mor (natural protein, bacteriophage Mu, UniProt P23848 1-129, looked up)
chain: MTEDLFGDLQDDTILAHLDNPAEDTSRFPALLAELNDLLRGELSRLGVDPAHSLEIVVAICKHLGGGQVYIPRGQALDSLIRDLRIWNDFNGRNVSELTTRYGVTFNTVYKAIRRMRRLKYRQYQPSLL
Broadly, the stoichiometry N is the number of molecules, sites or subunits per partner or assembly. For the molecule B1, in data set [1], the binding result is reported as “binds”. In addition, the “stoichiometry N” value in the data set “cryo-EM structure [2]” came to 4.

B2: phage Mu late gene transcription activator C (natural protein, bacteriophage Mu, UniProt P06022 1-140, looked up)
chain: MQHDLFEHDPAIRQLIGHIDNIPAPELESRWPRSVVDLIDVLENELKRQNVSNPRELARKQAVALSCFLGGRQFYIPCGDTILTALRDDLLYCQFNGRNMEELRRQYRLSQPQIYQIIARQRKLHTRRHQPDLFSPETPK
B2: in “cryo-EM structure [3]”, the “stoichiometry N” value worked out at 4.
